Experimental data: paper PMC11479938

Biological target: SerRS (full-length human seryl-tRNA synthetase) (human) (UniProt P49591)
Sequence (P49591 whole entry): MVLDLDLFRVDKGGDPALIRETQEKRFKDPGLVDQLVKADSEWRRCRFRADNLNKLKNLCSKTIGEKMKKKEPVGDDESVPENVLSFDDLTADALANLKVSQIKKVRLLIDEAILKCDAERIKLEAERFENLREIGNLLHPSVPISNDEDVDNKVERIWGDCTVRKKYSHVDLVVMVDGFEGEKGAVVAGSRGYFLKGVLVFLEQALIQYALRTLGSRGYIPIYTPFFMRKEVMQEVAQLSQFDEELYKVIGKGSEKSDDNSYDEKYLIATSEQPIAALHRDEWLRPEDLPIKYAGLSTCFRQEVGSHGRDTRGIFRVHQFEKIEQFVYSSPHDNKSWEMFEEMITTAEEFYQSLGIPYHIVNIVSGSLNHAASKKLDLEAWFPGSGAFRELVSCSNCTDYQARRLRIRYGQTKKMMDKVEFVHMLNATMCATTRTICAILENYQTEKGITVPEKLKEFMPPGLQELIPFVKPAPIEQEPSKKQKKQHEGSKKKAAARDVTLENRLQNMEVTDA

in vitro methyltransferase activity of METTL6 on tRNA^SerUGA after adding SerRS (^3H-SAM incorporation): 1000 fold
Substance: METTL6 (full-length human m^3C tRNA methyltransferase) (from UniProt Q8TCB7 1-284) (enzyme)
